Assay results published in US20240156979A1.

Biological target: Siglec-specific antibody for Siglec-9 (R&D Systems MAB1139)
Experiment: ForteBio Octet; construct captured on AHC biosensor, antibody titrated; 1:1 fit

Substance: Sig-9-Fc (Fc fusion)
- Kd: < 0.01 µM
